Laboratory results published in paper PMC5705219.

Target: PRDM9 chimera: human exons 1-9 joined to the final exon (ZF array, 18 zinc fingers) of the chimpanzee reference PRDM9 allele w11a, C-terminally tagged with HA or V5 (human | chimpanzee)
Assay: co-IP; direct competition: HEK293T transfected with three constructs, Human and Chimp prey with the same epitope tag and Human or Chimp bait with the complementary tag; IP against the bait tag, western against the prey tag; both directions of HA/V5 tagging

Substance: PRDM9 chimera: human exons 1-9 joined to the final exon (ZF array, 18 zinc fingers) of the chimpanzee reference PRDM9 allele w11a, C-terminally tagged with HA or V5
- fold pull-down efficiency against Human PRDM9 prey on the same Chimp bait: > 2 fold
